Source: patent publication US20200270321A1 (Hoffmann-La Roche, published 2020)

Assays:
[1] = target: T1, human fibroblast activation protein (huFAP) on cells (human, UniProt Q12884 1-760); experiment: flow cytometry on WM-266-4 cells; PE anti-human IgG Fc-gamma F(ab')2; MFI
T1 construct: Transfected in NIH/3T3-huFAP clone 39; also called NIH/3T3-huFAP clone 39; WM266-4

[2] = target: T2, human 4-1BB (CD137) on cells (human, UniProt Q07011 24-255); experiment: flow cytometry on activated human T cells, gate CD4+; PE anti-human IgG Fc-gamma F(ab')2; MFI baseline corrected
T2 construct: whole, on cells; also called 4-1BB+ human T cells
T2 sequence (Q07011 24-255): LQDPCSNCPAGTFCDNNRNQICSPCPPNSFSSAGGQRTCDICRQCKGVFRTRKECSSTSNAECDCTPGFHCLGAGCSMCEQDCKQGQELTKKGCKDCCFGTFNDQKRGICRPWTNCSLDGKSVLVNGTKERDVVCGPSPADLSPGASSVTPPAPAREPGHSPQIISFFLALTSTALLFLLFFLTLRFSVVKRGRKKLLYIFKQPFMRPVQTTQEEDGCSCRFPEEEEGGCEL

[3] = target: T1, human fibroblast activation protein …; experiment: flow cytometry on MV-3 cells; PE anti-human IgG Fc-gamma F(ab')2; MFI
cyCD19 ECD = target: T3, cyCD19 ECD (cynomolgus); experiment: binding to CD19 ECD; method not stated
T3 construct: extracellular domain; also called cynomolgus CD19 ectodomain

huCD19 ECD = target: T4, huCD19 ECD (human, UniProt P15391 20-291); experiment: binding to CD19 ECD; method not stated
T4 construct: also called human CD19 ectodomain
T4 sequence: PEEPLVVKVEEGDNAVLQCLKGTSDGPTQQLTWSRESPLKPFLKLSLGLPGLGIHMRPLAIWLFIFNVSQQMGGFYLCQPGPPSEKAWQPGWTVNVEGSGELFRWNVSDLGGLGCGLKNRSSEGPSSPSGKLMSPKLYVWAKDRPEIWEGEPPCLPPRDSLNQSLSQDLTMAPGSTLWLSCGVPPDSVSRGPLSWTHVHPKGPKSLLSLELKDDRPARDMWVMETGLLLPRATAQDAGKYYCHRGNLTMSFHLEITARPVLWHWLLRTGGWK

[4] = target: T5, monomeric human CD19 Fc (kih) fusion protein (human, UniProt P0DOX5 223-449 = IgG part); experiment: SPR (ProteOn XPR36), Fab from bacterial supernatant captured by anti-human Fab, monomeric CD19-Fc as analyte
T5 construct: also called monomeric CD19-Fc
Procedure: In order to further characterize the ELISA-positive clones, the off-rate was measured by surface plasmon resonance and compared with the parental humanized clone 8B8.
For this experiment, 7000 RU of polyclonal anti-human Fab antibody were immobilized on all 6 channels of a GLM chip by Amine coupling (NaAcetate pH4.5, 25 μl/min, 240 s) (vertical orientation). Each antibody-containing bacterial supernatant was filtered and 2-fold diluted with PBS, and then injected for 360s at 25 μl/minute to achieve immobilization levels of between 100 and 400 response units (RU) in vertical orientation. […] Regeneration was performed by two pulses of 10 mM glycine pH 1.5 and 50 mM NaOH for 30 s at 90 ul/min (horizontal orientation). Dissociation rate constants (koff) were calculated using a simple one-to-one Langmuir binding model in ProteOn Manager v3.1 software by simultaneously fitting the sensorgrams.

B1: bivalent binding FAP (28H1)-targeted huIgG1 P329G LALA (antibody, V domains shown)
VH: EVQLLESGGGLVQPGGSLRLSCAASGFTFSSHAMSWVRQAPGKGLEWVSAIWASGEQYYADSVKGRFTISRDNSKNTLYLQMNSLRAEDTAVYYCAKGWLGNFDYWGQGTLVTVSS
VL: EIVLTQSPGTLSLSPGERATLSCRASQSVSRSYLAWYQQKPGQAPRLLIIGASTRATGIPDRFSGSGSGTDFTLTISRLEPEDFAVYYCQQGQVIPPTFGQGTKVEIK
notes: the rest is said to be human IgG1 P329G LALA; also called FAP(28H1)-targeted hu IgG1 P329G LALA control molecule
Question: Which results are given for B1?
Answer: EC50 (read off the curve) [1]: ~1 nM; binding result [2]: no binding (tested: about 300 nM); EC50 (read off the curve) [3]: ~1 nM

B2: wild-type humanized anti-human CD19 antibody 8B8 (antibody, V domains shown)
VH: QVQLVQSGAEVKKPGASVKVSCKASGYTFTDYIMHWVRQAPGQGLEWMGYINPYNDGSKYTEKFNGRVTMTSDTSISTAYMELSRLRSDDTAVYYCARGTYYYGSALFDYWGQGTTVTVSS
VL: DIVMTQTPLSLSVTPGQPASISCKSSQSLENSNGNTYLNWYLQKPGQSPQLLIYRVSKRFSGVPDRFSGSGSGTDFTLKISRVEAEDVGVYYCLQLTHVPYTFGQGTKLEIK
notes: also called wt 8B8
Question: How did the EC50 (cyCD19 ECD) turn out when B2 was run?
Answer: 0.313 µg/mL

B3: humanized anti-human CD19 antibody clone 8B8-018 (antibody, V domains shown)
VH: QVQLVQSGAEVKKPGASVKVSCKASGYTFTDYIMHWVRQAPGQGLEWMGYINPYNDGSKYTEKFQGRVTMTSDTSISTAYMELSRLRSDDTAVYYCARGTYYYGSALFDYWGQGTTVTVSS
VL: DIVMTQTPLSLSVTPGQPASISCKSSQSLENPNGNTYLNWYLQKPGQSPQLLIYRVSKRFSGVPDRFSGSGSGTDFTLKISRVEAEDVGVYYCLQLTHVPYTFGQGTKLEIK
notes: also called CD19 (8B8-018)
Question: With B3 as the binder, how does the EC50 (cyCD19 ECD) read?
Answer: 0.255 µg/mL

Question: And the EC50 (huCD19 ECD)?
Answer: 0.084 µg/mL

B4: affinity-matured 8B8-derived clone 2B11, Fab in bacterial supernatant (Fab, V domains shown)
VH: QVQLVQSGAEVKKPGASVKVSCKASGYTFTDYIMHWVRQAPGQGLEWMGYINPYNDGSKYTEKFQGRVTMTSDTSISTAYMELSRLRSDDTAVYYCARGTYYYGPQLFDYWGQGTTVTVSS
VL: DIVMTQTPLSLSVTPGQPASISCKSSQSLETSTGTTYLNWYLQKPGQSPQLLIYRVSKRFSGVPDRFSGSGSGTDFTLKISRVEAEDVGVYYCLQLLEDPYTFGQGTKLEIK
notes: tested as a soluble Fab from bacterial supernatant; also called 8B8-2B11; CD19 (8B8-2B11)
Question: How did the koff [4] turn out when B4 was run?
Answer: 4.37e-06 s⁻¹
